Assay results taken from article PMC4991212 (Cell, 2016).

Molecular target: APC2 (cullin subunit of APC/C) (human, UniProt Q9UJX6 1-822)
Assay: cryo-EM structure

binding result: binds
B1: UBE2C (C102A), catalytic Cys only version, in the multiubiquitination trap (enzyme, human, UniProt O00762 1-179, looked up)
chain: MASQNRDPAATSVAAARKGAEPSGGAARGPVGKRLQQELMTLMMSGDKGISAFPESDNLFKWVGTIHGAAGTVYEDLRYKLSLEFPSGYPYNAPTVKFLTPAYHPNVDTQGNICLDILKEKWSALYDVRTILLSIQSLLGEPNIDSPLNTHAAELWKNPTAFKKYLQETYSKQVTSQEP
modifications: active site Cys joined to the TMEA crosslinker
